The test deals with globupain, wild-type zymogen (proenzyme) (unclassified Archaeoglobus species (metagenome)). Description: SEC + AUC; SEC: Superdex 75 10/300 GL, 50 mM potassium phosphate pH 7.0, 150 mM NaCl, 500 uL of globupain at 1 mg/mL, calibrated with proteins of known molecular weight; AUC (p-0016): sedimentation velocity, 20°C, 50,000 rpm, 50 mM potassium phosphate pH 7.0, 150 mM NaCl, 1 mM EDTA, c(s) distribution in ….

One may read the stoichiometry N as the number of molecules, sites or subunits per partner or assembly. Take “globupain, wild-type zymogen (proenzyme)”: the stoichiometry N came out at 2.
